How the values were obtained:
human ActRIIB-Fc protein = target: T1, human ActRIIB-Fc protein (human, UniProt Q13705)
T1 sequence: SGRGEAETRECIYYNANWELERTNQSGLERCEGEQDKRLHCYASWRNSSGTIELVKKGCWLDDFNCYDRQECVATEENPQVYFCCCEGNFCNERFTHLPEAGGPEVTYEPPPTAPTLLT

human ActRIIA-Fc protein = human ActRIIA-Fc protein (human, UniProt P27037)
Chain of human ActRIIA-Fc protein (P27037 20-135): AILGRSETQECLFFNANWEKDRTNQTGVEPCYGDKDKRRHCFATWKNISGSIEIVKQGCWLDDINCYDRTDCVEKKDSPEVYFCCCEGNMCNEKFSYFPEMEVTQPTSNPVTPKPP

B1: activin A (ligand)
chain: GLECDGKVNICCKKQFFVSFKDIGWNDWIIAPSGYHANYCEGECPSHIAGTSGSSLSFHSTVINHYRMRGHSPFANLKSCCVPTKLRPMSMLYYDDGQNIIKKDIQNMIVEECGCS
- Kd (human ActRIIB-Fc protein): 6.5 pM
- Kd (human ActRIIA-Fc protein): 5.3 pM
